According to US20200338203A1 (Bicycle, published 2020):
Numbered stars: 1 amine (or outer) side, 2 acyl side, 3 side chain; on linkers, the order of the positions; unused ones are H or OH. Bridge positions count the residues as written; N and C are the ends. Square brackets hold non-standard residues; d marks the D form. Ends that are not written are not given here. DM1 = thiol-containing maytansine derivative (cytotoxic agent); disulphide linker of formula (B) = not defined here; TBMB = c1c(C[*:1])cc(C[*:3])cc1C[*:2]; βAla = NCCC(=O)O; Sar = CNCC(=O)O

Target: T1, Human EphA2 (Human, UniProt P29317 24-537)
T1 construct: extracellular domain; also called EphA2 (Ecto), Human
Experiment: FP competition; competitor: fluorescent Compound 12
Method: Peptides without a fluorescent tag were tested in competition with a peptide with a fluorescent tag and a known Kd (Table 2). Peptides were diluted to an appropriate concentration in assay buffer as described in the direct binding assay with a maximum of 5% DMSO, then serially diluted 1 in 2. Five μL of diluted peptide was added to the plate followed by 10 μL of human or mouse EphA2 (Table 1) at a fixed concentration which was dependent on the fluorescent peptide used (Table 2), then 10 μL fluorescent peptide added. Measurements were conducted as for the direct binding assay, however the gain was determined prior to the first measurement.

T1 sequence (P29317 24-537): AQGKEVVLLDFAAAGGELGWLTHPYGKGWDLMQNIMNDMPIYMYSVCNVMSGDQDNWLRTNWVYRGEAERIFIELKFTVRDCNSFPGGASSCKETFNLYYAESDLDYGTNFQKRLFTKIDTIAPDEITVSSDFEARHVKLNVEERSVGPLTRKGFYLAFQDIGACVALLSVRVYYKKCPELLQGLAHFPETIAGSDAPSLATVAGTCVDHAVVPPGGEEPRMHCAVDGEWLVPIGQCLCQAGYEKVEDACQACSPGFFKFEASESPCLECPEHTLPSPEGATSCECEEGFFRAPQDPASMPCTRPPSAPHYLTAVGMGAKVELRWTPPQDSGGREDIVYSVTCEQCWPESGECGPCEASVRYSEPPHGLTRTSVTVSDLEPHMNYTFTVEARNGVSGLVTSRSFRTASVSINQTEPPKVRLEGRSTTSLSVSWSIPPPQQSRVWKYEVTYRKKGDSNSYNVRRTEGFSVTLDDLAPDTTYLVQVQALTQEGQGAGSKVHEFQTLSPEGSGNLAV

B1: BDC-5 (peptide)
peptide: {DM1-disulphide linker of formula (B)-βAla}-[Sar][Sar][Sar][Sar][Sar][Sar][Sar][Sar][Sar][Sar]ACPWAPFWCAVNRPGC
modifications: linker 12-19-26 via TBMB; reading uncertain
notes: DM1 conjugate; also called Bicyclic Peptide Drug Conjugate BDC-5; Compound 303, Formula (B)
B1 was tested, and the Ki was > 1000 nM.
